To fix the notation:
B1: thioredoxin-fused MBP 81-104 (MBP epitope library), biotinylated (peptide)
chain: TQDENPVVHFFKNIVTPRTPPPSQ
modifications: not fully specified; also: thioredoxin-fused, end not given here, biotinylated chemically (EZ-Link Sulfo-NHS-LC-biotin, 1:20), position not given here
B2: thioredoxin-fused MBP 146-170 (MBP epitope library), biotinylated (peptide)
chain: DAQGTLSKIFKLGGRDSRSGSPMAR
modifications: not fully specified; also: thioredoxin-fused, end not given here, biotinylated chemically (EZ-Link Sulfo-NHS-LC-biotin, 1:20), position not given here

No end group written: not given here.

In this assay the target is recombinant HLA-DRB1*01:01 protein (HLA-DR α chain with DRB1*01:01 β chain) (human).
A word on the Kd: it is the concentration at which binding is half-saturated. Regarding B1, the dissociation constant (Kd) came out at 103 nM.
The figure for TQDENPVVHFFKNIVTPRTPPPSQ (also: biotinylated, position not given here) [chemically synthesized biotinylated peptide MBP 81-104] is 22 nM; for DAQGTLSKIFKLGGRDSRSGSPMAR (also: biotinylated, position not given here) [chemically synthesized biotinylated peptide MBP 146-170] it is 52 nM; for B2 it is 101 nM.

These data come from publication PMC6978714 (2019).
